Experimental data taken from PMC8481291 (Nature Communications, 2021).
“And” between values parts separate entries of the source, which are not always exact repeats. Identical values can stand only once.

Assays:
[1] = target: tES–F116H(+) (Archaeoglobus fulgidus); test: AUC; sedimentation of tES–F116H/POI samples (1 µM) in PBS, 20 °C, absorbance at 280 nm; POI loaded into tES by pH shift 5.8 to 8.0 and dialysis
[2] = target: tES–F116H(+/–) (Archaeoglobus fulgidus); test: AUC
[3] = target: tES–F116H(+) (Archaeoglobus fulgidus); test: AUC
[4] = target: tES–F116H(–) (Archaeoglobus fulgidus); test: AUC
[5] = target: tES–F116H(+) (Archaeoglobus fulgidus); test: AUC; remark: listed apart in the source
[6] = target: the molecule itself; test: AUC

With “Renilla luciferin 2-monooxygenase (from UniProt P27652 1-311) (enzyme)” the stoichiometry N (rLuc per tES shell) [1] was 2 and 1.

Molecule “Tumor protein 53, stabilized clone (from UniProt P04637 1-393) (natural protein)” has a stoichiometry N (p53 per tES shell) [2] of 1 and a stoichiometry N (p53 per tES shell) [3] of 1.

For rFasxiator (natural protein), the stoichiometry N (rFasxiator per tES shell) [4] was 3.

B1: Shrimp alkaline phosphatase (enzyme, UniProt Q9BHT8 1-475, looked up)
chain: KAYWNKDAQDALDKQLGIKLREKQAKNVIFFLGDGMSLSTVTAARIYKGGLTGKFEREKISWEEFDFAALSKTYNTDKQVTDSAASATAYLTGVKTNQGVIGLDANTVRTNCSYQLDESLFTYSIAHWFQEAGRSTGVVTSTRVTHATPAGTYAHVADRDWENDSDVVHDREDPEICDDIAEQLVFREPGKNFKVIMGGGRRGFFPEEALDIEDGIPGEREDGKHLITDWLDDKASQGATASYVWNRDDLLAVDIRNTDYLMGLFSYTHLDTVLTRDAEMDPTLPEMTKVAIEMLTKDENGFFLLVEGGRIDHMHHANQIRQSLAETLDMEEAVSMALSMTDPEETIILVTADHGHTLTITGYADRNTDILDFAGISDLDDRRYTILDYGSGPGYHITEDGKRYEPTEEDLKDINFRYASAAPKHSVTHDGTDVGIWVNGPFAHLFTGVYEENYIPHALAYAACVGTGRTFCDEK
notes: also called sAP; AP
B1 was tested, and the stoichiometry N (sAP per tES shell) [5] was 1 and the “stoichiometry N” value [6] was 2.
